From PMC6119766, “Terminal Regions Confer Plasticity to the Tetrameric Assembly of Human HspB2 and HspB3” (Journal of Molecular Biology, 2018) come the findings set out here.

B1: human HspB2 (natural protein, UniProt Q16082 1-182, looked up)
chain: MSGRSVPHAHPATAEYEFANPSRLGEQRFGEGLLPEEILTPTLYHGYYVRPRAAPAGEGSRAGASELRLSEGKFQAFLDVSHFTPDEVTVRTVDNLLEVSARHPQRLDRHGFVSREFCRTYVLPADVDPWRVRAALSHDGILNLEAPRGGRHLDTEVNEVYISLLPAPPDPEEEEEAAIVEP
notes: human HspB2 (small heat shock protein B2); Made together with HspB3 from one pET3a construct; also called HsB2; HspB2_Human; source: E. coli BL21(DE3), pET3a-HspB2/B3, purified (DEAE-Sepharose, Source 15Q)
B2: rat HspB2/B3 hetero-tetramer (complex)
chain 1: B1 chain with S5T, P55R, S60G, A177V, I179R
chain 2: MAKIILRHLIETPVRYQEEFEARGLEDCRLDHALYALPGPTIEDLRKARGTPKALAEDSDSAETPPGEGKSRFQILLDVVQFLPEDIIIQTFEGWLLIKAQHGTRMDEHGFISRSFTRQYKLPDGVETKDLSAILCHDGILVVEVKDPLETK
notes: rat HspB2, as m5; rat HspB3, as m6; The protomer that forms the higher oligomers; also called wild-type rat HspB2/B3; copies: 3 + 1
B3: human HspB3 (wild type) (natural protein, UniProt Q12988 1-150, looked up)
chain: MAKIILRHLIEIPVRYQEEFEARGLEDCRLDHALYALPGPTIVDLRKTRAAQSPPVDSAAETPPREGKSHFQILLDVVQFLPEDIIIQTFEGWLLIKAQHGTRMDEHGFISRSFTRQYKLPDGVEIKDLSAVLCHDGILVVEVKDPVGTK
notes: human HspB3 (small heat shock protein B3); HspB3 could not be purified alone; it is obtained only in complex with HspB2; also called HsB3; HspB3_Human; source: E. coli BL21(DE3), pET3a-HspB2/B3 wild type, purified with HspB2 (DEAE-Sepharose, Source 15Q)
B4: engineered human HspB3 with the C-terminal extension of human HspB2 (HspB3 + B2tail) (other)
chain: MAKIILRHLIEIPVRYQEEFEARGLEDCRLDHALYALPGPTIVDLRKTRAAQSPPVDSAAETPPREGKSHFQILLDVVQFLPEDIIIQTFEGWLLIKAQHGTRMDEHGFISRSFTRQYKLPDGVEIKDLSAVLCHDGILVVEVKDPVGTPEEEEEAAIVEP
notes: human HspB3 without its C-terminal lysine, which was replaced by the HspB2 tail; last 12 amino acids of human HspB2, residues 171-182; The results say the tail was added to the C-terminus; the methods say it replaced the C-terminal lysine (the reverse primer fits the methods); also called engineered HspB3 mutant; engineered mutant human HspB3; source: E. coli BL21(DE3), pET3a-HspB2/B3 mutant, …
B5: rat HspB3 (natural protein, UniProt Q9QZ58 1-152, looked up)
chain: B2 chain 2
notes: rat HspB3, wild type; ultimate C-terminal residue K152; also called RnB3; HspB3_Rat
B6: rat HspB2 (natural protein, UniProt O35878 1-182, looked up)
chain: B1 chain with S5T, P55R, S60G, A177V, I179R
notes: rat HspB2, wild type; C-terminal residues E172 to P182 seen by NMR; also called RnB2; HspB2_Rat

Residue numbers refer to the chain shown, from its start.

Series [1] deals with the molecule itself. The experiment in a line: crystal structure; hanging drop at 21 °C; 3.9 Å; space group P3(1); three hetero-tetramers (12 chains) in the asymmetric unit.
Series [2] concerns the target B4. The experiment in a line: SEC + native MS; HspB2/B3 complexes; Superdex 200 10/300 fractions nanoelectrosprayed at 10 μM in 200 mM ammonium acetate (pH 6.9). The conditions noted are these: both partners purified.
The series “human HspB3 (wild type)” concerns the target B3. Described as above. The settings on record: both partners purified.
Series [3] deals with the molecule itself. The description is as above.
The series “rat HspB2” addresses B6. Described as above. The settings on record: both partners purified.
Series [4] has as its target B1. The experiment in a line: crystal structure; hanging drop at 21 °C; 3.9 Å; space group P3(1); three hetero-tetramers (12 chains) in the asymmetric unit. The settings on record: both partners purified.
Series [5] addresses B1. The experiment in a line: SEC + native MS; HspB2/B3 complexes; Superdex 200 10/300 fractions nanoelectrosprayed at 10 μM in 200 mM ammonium acetate (pH 6.9). The settings on record: both partners purified.
The series “rat HspB3” deals with B5. Described as above. The conditions noted are these: both partners purified.

On to B1, for which the binding result in series [1] is given as “binds”. For the same molecule, the “stoichiometry N” value (in series [2]; with human HspB3 (wild type)) was 3 HspB2 per HspB3 throughout.

Turning to B2, the “stoichiometry N” value in series [3] was 8 to 24 chains (the hetero-tetramer has 4).

For the molecule B3, the binding result in the series with rat HspB2 is listed as “binds”.

For the molecule B4, the binding result in the series with human HspB2 [4] is given as “binds”.

Take B5: the binding result in the series with human HspB2 [5] is “binds”.

On to B6, for which the “stoichiometry N” value in the series with rat HspB3 came out at 3 HspB2 per HspB3.
